Laboratory results as given in the Immune Epitope Database (IEDB).

How the values were obtained:
Assay in all cases: IEDB peptide-MHC binding, purified MHC/competitive/radioactivity; filed as Kd, often an IC50 or EC50 that approximates it; ≥ and ≤ were set here for values at or beyond the usual limits of such assays
HLA-A*31:01 = target: HLA-A*31:01
HLA-A*03:01 = target: HLA-A*03:01
HLA-A*11:01 = target: HLA-A*11:01
HLA-A*33:01 = target: HLA-A*33:01
HLA-A*68:01 = target: HLA-A*68:01
[1] = source organism: SARS coronavirus Tor2
[2] = source organism: Vaccinia virus WR
[3] = source organism: Mammarenavirus whitewaterense
[4] = source organism: Mammarenavirus machupoense
[5] = source organism: Dengue virus 4 Philippines/H241/1956
[6] = source organism: Dengue virus 2 Jamaica/1409/1983
[7] = source organism: Vaccinia virus Copenhagen
[8] = source organism: Dengue virus 1 Brazil/97-11/1997
[9] = source organism: Mammarenavirus brazilense
[10] = source organism: Dengue virus 1 Nauru/West Pac/1974

Sequence: SLYMAISPK
- Kd (HLA-A*31:01; [1]): 1010 nM
- Kd (HLA-A*03:01; [1]): 13.6 nM
- Kd (HLA-A*11:01; [1]): 21.9 nM
- Kd (HLA-A*33:01; [1]): ≥ 49500 nM
- Kd (HLA-A*68:01; [1]): 2190 nM

Sequence: NSTTDAEACY
- Kd (HLA-A*31:01; [2]): ≥ 70000 nM
- Kd (HLA-A*03:01; [2]): ≥ 70100 nM
- Kd (HLA-A*11:01; [2]): 17800 nM
- Kd (HLA-A*33:01; [2]): ≥ 70000 nM
- Kd (HLA-A*68:01; [2]): 7370 nM

Sequence: SFKDQSKYCH
- Kd (HLA-A*31:01; [3]): 1160 nM
- Kd (HLA-A*03:01; [3]): ≥ 70000 nM
- Kd (HLA-A*11:01; [3]): ≥ 69700 nM
- Kd (HLA-A*33:01; [3]): 8630 nM
- Kd (HLA-A*68:01; [3]): ≥ 70100 nM

Sequence: LNNSFYYMR
- Kd (HLA-A*31:01; [4]): 4.64 nM
- Kd (HLA-A*03:01; [4]): ≥ 78000 nM
- Kd (HLA-A*11:01; [4]): 5880 nM
- Kd (HLA-A*33:01; [4]): ≥ 21700 nM
- Kd (HLA-A*68:01; [4]): 15.3 nM

Sequence: YTYDRVDIYY
- Kd (HLA-A*31:01; [2]): 11000 nM
- Kd (HLA-A*03:01; [2]): 97.4 nM
- Kd (HLA-A*11:01; [2]): 2.41 nM
- Kd (HLA-A*33:01; [2]): 1170 nM
- Kd (HLA-A*68:01; [2]): 0.96 nM

Sequence: VALYRRIQRR
- Kd (HLA-A*31:01; [2]): 562 nM
- Kd (HLA-A*03:01; [2]): ≥ 70100 nM
- Kd (HLA-A*11:01; [2]): ≥ 48200 nM
- Kd (HLA-A*33:01; [2]): 1340 nM
- Kd (HLA-A*68:01; [2]): ≥ 30500 nM

Sequence: SMRYQSLIPR
- Kd (HLA-A*31:01; [2]): 0.363 nM
- Kd (HLA-A*03:01; [2]): 1.35 nM
- Kd (HLA-A*11:01; [2]): 1.01 nM
- Kd (HLA-A*33:01; [2]): 0.614 nM
- Kd (HLA-A*68:01; [2]): 20.2 nM

Sequence: DTSECPNERR
- Kd (HLA-A*68:01; [5]): 124 nM

Sequence: YSMCTGKFK
- Kd (HLA-A*11:01; [6]): 550 nM

Sequence: STMPLVMAWR
- Kd (HLA-A*31:01; [5]): 1.16 nM
- Kd (HLA-A*11:01; [5]): 14.8 nM
- Kd (HLA-A*33:01; [5]): 2.89 nM
- Kd (HLA-A*68:01; [5]): 15.2 nM

Sequence: NWLARVGRER
- Kd (HLA-A*33:01; [6]): 242 nM

Sequence: VVYRAFDIY
- Kd (HLA-A*31:01; [1]): 7860 nM
- Kd (HLA-A*03:01; [1]): 163 nM
- Kd (HLA-A*11:01; [1]): 149 nM
- Kd (HLA-A*33:01; [1]): ≥ 25100 nM
- Kd (HLA-A*68:01; [1]): 3340 nM

Sequence: ELTTVFIKY
- Kd (HLA-A*31:01; [2]): 1820 nM
- Kd (HLA-A*03:01; [2]): 269 nM
- Kd (HLA-A*11:01; [2]): 6690 nM
- Kd (HLA-A*33:01; [2]): 5450 nM
- Kd (HLA-A*68:01; [2]): 855 nM

Sequence: LLNVTYNIK
- Kd (HLA-A*31:01; [7]): ≥ 77900 nM
- Kd (HLA-A*03:01; [7]): 7700 nM
- Kd (HLA-A*11:01; [7]): 4830 nM
- Kd (HLA-A*33:01; [7]): ≥ 77700 nM
- Kd (HLA-A*68:01; [7]): 11300 nM

Sequence: VMNIERQDY
- Kd (HLA-A*31:01; [2]): 3880 nM
- Kd (HLA-A*03:01; [2]): ≥ 61100 nM
- Kd (HLA-A*11:01; [2]): 6110 nM
- Kd (HLA-A*33:01; [2]): 747 nM
- Kd (HLA-A*68:01; [2]): 53.2 nM

Sequence: KLLQTLVLK
- Kd (HLA-A*31:01; [1]): 2480 nM
- Kd (HLA-A*03:01; [1]): 863 nM
- Kd (HLA-A*11:01; [1]): 1070 nM
- Kd (HLA-A*33:01; [1]): ≥ 44900 nM
- Kd (HLA-A*68:01; [1]): ≥ 39400 nM

Sequence: PIGMQFDKVY
- Kd (HLA-A*31:01; [2]): ≥ 70000 nM
- Kd (HLA-A*03:01; [2]): ≥ 70100 nM
- Kd (HLA-A*11:01; [2]): 1230 nM
- Kd (HLA-A*33:01; [2]): ≥ 70000 nM
- Kd (HLA-A*68:01; [2]): 13000 nM

Sequence: RTAIHSLYGR
- Kd (HLA-A*11:01; source organism: Mammarenavirus guanaritoense): 142 nM

Sequence: IFMRDWNSKY
- Kd (HLA-A*31:01; [2]): 2480 nM
- Kd (HLA-A*03:01; [2]): ≥ 33300 nM
- Kd (HLA-A*11:01; [2]): ≥ 20500 nM
- Kd (HLA-A*33:01; [2]): 13700 nM
- Kd (HLA-A*68:01; [2]): 10900 nM

Sequence: KQLCYCPASK
- Kd (HLA-A*31:01; [2]): 31 nM
- Kd (HLA-A*03:01; [2]): 27.1 nM
- Kd (HLA-A*11:01; [2]): 13.9 nM
- Kd (HLA-A*33:01; [2]): ≥ 31100 nM
- Kd (HLA-A*68:01; [2]): 11300 nM

Sequence: KSCICYGSY
- Kd (HLA-A*31:01; [2]): 418 nM
- Kd (HLA-A*03:01; [2]): 437 nM
- Kd (HLA-A*11:01; [2]): 6.88 nM
- Kd (HLA-A*33:01; [2]): 364 nM
- Kd (HLA-A*68:01; [2]): ≥ 29700 nM

Sequence: KLSAGVEFLK
- Kd (HLA-A*31:01; [1]): 516 nM
- Kd (HLA-A*03:01; [1]): 14.9 nM
- Kd (HLA-A*11:01; [1]): 27.9 nM
- Kd (HLA-A*33:01; [1]): 6100 nM
- Kd (HLA-A*68:01; [1]): 101 nM

Sequence: RIDGAHLTK
- Kd (HLA-A*31:01; [1]): 1820 nM
- Kd (HLA-A*03:01; [1]): 26.7 nM
- Kd (HLA-A*11:01; [1]): 11.9 nM
- Kd (HLA-A*33:01; [1]): ≥ 77700 nM
- Kd (HLA-A*68:01; [1]): ≥ 25700 nM

Sequence: NTKSDIDVIK
- Kd (HLA-A*31:01; [2]): 4030 nM
- Kd (HLA-A*03:01; [2]): 8260 nM
- Kd (HLA-A*11:01; [2]): 68.4 nM
- Kd (HLA-A*33:01; [2]): 970 nM
- Kd (HLA-A*68:01; [2]): 0.547 nM

Sequence: MWQLMYFHR
- Kd (HLA-A*31:01; [8]): ≥ 24400 nM
- Kd (HLA-A*33:01; [8]): 1.43 nM

Sequence: EQLQLLMPLK
- Kd (HLA-A*31:01; [1]): 2940 nM
- Kd (HLA-A*03:01; [1]): 1200 nM
- Kd (HLA-A*11:01; [1]): 150 nM
- Kd (HLA-A*33:01; [1]): 2370 nM
- Kd (HLA-A*68:01; [1]): 1790 nM

Sequence: DTIVSRSSR
- Kd (HLA-A*31:01; [2]): 1410 nM
- Kd (HLA-A*03:01; [2]): ≥ 78000 nM
- Kd (HLA-A*11:01; [2]): ≥ 77900 nM
- Kd (HLA-A*33:01; [2]): 5.71 nM
- Kd (HLA-A*68:01; [2]): 5.79 nM

Sequence: EKFGHFCKYH
- Kd (HLA-A*31:01; [4]): ≥ 32800 nM
- Kd (HLA-A*03:01; [4]): ≥ 70000 nM
- Kd (HLA-A*11:01; [4]): ≥ 69700 nM
- Kd (HLA-A*33:01; [4]): ≥ 70000 nM
- Kd (HLA-A*68:01; [4]): ≥ 70100 nM

Sequence: MVNHSTYYVH
- Kd (HLA-A*31:01; [9]): 544 nM
- Kd (HLA-A*03:01; [9]): 10100 nM
- Kd (HLA-A*11:01; [9]): 6280 nM
- Kd (HLA-A*33:01; [9]): 3020 nM
- Kd (HLA-A*68:01; [9]): 391 nM

Sequence: KIIETYLGR
- Kd (HLA-A*31:01; [2]): ≥ 77900 nM
- Kd (HLA-A*03:01; [2]): ≥ 78000 nM
- Kd (HLA-A*11:01; [2]): ≥ 77900 nM
- Kd (HLA-A*33:01; [2]): ≥ 77700 nM
- Kd (HLA-A*68:01; [2]): ≥ 77700 nM

Sequence: RVSTVSQLAK
- Kd (HLA-A*03:01; [10]): 6.04 nM
- Kd (HLA-A*11:01; [10]): 40.3 nM

Sequence: CTLPPLRFR
- Kd (HLA-A*31:01; [8]): ≥ 77900 nM
- Kd (HLA-A*33:01; [8]): 4.13 nM

Sequence: ATTFVTPMLR
- Kd (HLA-A*31:01; [6]): 91.1 nM
- Kd (HLA-A*11:01; [6]): 95.2 nM
- Kd (HLA-A*68:01; [6]): 16.2 nM

Sequence: CTLPPLRYR
- Kd (HLA-A*31:01; [6]): 2.9 nM
- Kd (HLA-A*33:01; [6]): 12.1 nM

Sequence: ILNKIVQLPK
- Kd (HLA-A*31:01; [2]): 2070 nM
- Kd (HLA-A*03:01; [2]): 17.3 nM
- Kd (HLA-A*11:01; [2]): 289 nM
- Kd (HLA-A*33:01; [2]): ≥ 70000 nM
- Kd (HLA-A*68:01; [2]): 8300 nM

Sequence: RKTFVELMRR
- Kd (HLA-A*31:01; [8]): 51.2 nM

Sequence: DVSLIIEYK
- Kd (HLA-A*31:01; [2]): 72.2 nM
- Kd (HLA-A*03:01; [2]): 16100 nM
- Kd (HLA-A*11:01; [2]): 152 nM
- Kd (HLA-A*33:01; [2]): 111 nM
- Kd (HLA-A*68:01; [2]): 3.57 nM

Sequence: SISNITTATR
- Kd (HLA-A*31:01; [5]): 626 nM
- Kd (HLA-A*33:01; [5]): 10.6 nM
- Kd (HLA-A*68:01; [5]): 13.6 nM

Sequence: GLYGNGVVTK
- Kd (HLA-A*03:01; source organism: Dengue virus 3 Martinique/1243/1999): 3.65 nM

Sequence: SVVQKPVDVK
- Kd (HLA-A*31:01; [1]): 7980 nM
- Kd (HLA-A*03:01; [1]): 61.6 nM
- Kd (HLA-A*11:01; [1]): 53.7 nM
- Kd (HLA-A*33:01; [1]): ≥ 67100 nM
- Kd (HLA-A*68:01; [1]): 857 nM
